# From the supplement of paper PMC9170038
# System: MS2 coat protein
# Experiment: apparent KD of MS2 coat protein; higher = weaker reporter binding
# Conditions: Eterna round: R107
# Summary of the method: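 On-chip transcription from Illumina sequencing clusters produced the designed RNA switches. These were titrated with SNAP-549-labelled MS2 coat protein (twofold steps, 0.7 or 1.5 nM to 3 µM) in 100 mM Tris-HCl pH 7.5, 80 mM KCl, 4 mM MgCl2, with or without constant ligand. The apparent KD given is the per-design median of normalised cluster binding-curve fits.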
# [1] = input ligand: theophylline 20 uM
# [2] = input ligand: theophylline 2 mM
# [3] = input ligand: tryptophan 2.4 mM
Sequence,apparent KD of MS2 coat protein (input ligand: arginine 13.2 mM),apparent KD of MS2 coat protein (input ligand: none),apparent KD of MS2 coat protein [1],apparent KD of MS2 coat protein [2],apparent KD of MS2 coat protein [3]
UCAGGAAGAGCGGCCGCCACUGUUUGGCAUGCGGAUGAAGGAACAUGAGGAUCACCCAUGUAGAUUAGGACCGGGCUUGCGGAGA [szeemullin],20.9 nM,13.7 nM,24.2 nM,19.4 nM,12.6 nM
UCAGUGGGUUCGGCCGCCACUUGAGUGAUGGUGCCUCAAUAAGUCUACAUGAGGAUCACCCAUGUAAGGACCGGGAAUUUUAUGG [theeternabot_exclusion_MS2_Trp_B_19],33.3 nM,–,59.1 nM,43.2 nM,–
UCAUAAGUACCGGUCCUCAGAUCCUCAUGACGAGGACCGGUACGGCCGCCACUCGAAACAUGAGGAUCACCCAUGUAAUAACAUU [Brourdmod23],19.5 nM,–,28.4 nM,26.1 nM,–
UCAUACAUGAGGAUCACCCAUGUUCGUGGGCGAGGACCGGUACGGCCGCCACUCGUACUAACGGUUUCUUAAACUUCCUUUCGAG [theeternabot_sameState_MS2_Trp_A_49],28.3 nM,–,41.2 nM,40.4 nM,–
UCAUUGAGAGUCAUCCAGCGUUAAUGGGAUACCAGAGUUCUUUUACUCCCUUGGCAGCCCGGAACAUGAGGAUCACCCAUGUCUG [theeternabot_exclusion_MS2_Theo_A_39],16.7 nM,–,44.7 nM,–,31.8 nM
UCGCGAGAGGGAAGGAGCGUCAGCUGAGUCACAUGAGGAUCACCCAUGUCGCACAUAGUGUGACAGGUAGGUCGCCCUCCGCCCU [Leinticees],99.6 nM,134 nM,248 nM,192 nM,157 nM
UCGCUCGCCGGAAGGCGAGCGAGUUGCGAUACCAGCCCGGAAACGGGCCCUUGGCAGCGCACAUGAGGAUCACCCAUGUCAUGUU [#1 Exclusion - Theophylline A Attempt #6 (HarryS)],24.3 nM,–,27.5 nM,–,18.3 nM
UCGCUCUGGGUGAAAUCCGGAGAUGUGGAAGGAGCGCUCGAAAGAGCAGGUAGGUCGCCAACGGACAUGAGGAUCACCCAUGUAC [Same State - Arginine A (Freestyle 20)],31 nM,29.6 nM,50 nM,75.3 nM,38.3 nM
UCGCUCUGGGUGAGAUCCGGAGAUGUGGAAGGAGCGCUGGUUCCAGCAGGUAGGUCGCCAACGGACAUGAGGAUCACCCAUGUAC [Same State - Arginine A (Freestyle 13)],39.2 nM,51.7 nM,63.1 nM,70.4 nM,45.9 nM
UCGGACAUGAGGAUCACCCAUGUAAAUCCUCGAGGACCGGUACGGCCGCCACUCGAACGAGUGGCGCGCGAGCGCGCGCUCGCGC [aGa],20.4 nM,43.8 nM,67.7 nM,62.5 nM,36.9 nM
UCGGGAACAUGAGGAUCACCCAUGUCAGAAGGAGCGCUGAGAGAAGCAGGUAGGUCGCUGACGUAGGAGCUCUCUUCCUAUACGC [Exclusion - Arginine A],23.3 nM,30.6 nM,40.1 nM,35.4 nM,25.4 nM
UCGGGCAGAGCGGCCGCCACUGUUUGGCGUGCGGAUGAAGGAACAUGAGGAUCACCCAUGUUGAUUAGGACCGGGCUUGCGGAGA [kklmullin],12.6 nM,17.1 nM,27 nM,17.4 nM,16.7 nM
UCGUGUGUUUCGGAUACCAGUGUGGUCGAUACAUGAGGAUCACCCAUGUGAGAGGAGGUACACCCUUGGCAGCUGGCUGUUGCGG [qqwmullin],39.7 nM,–,82 nM,–,77.5 nM
UCGUUAUGGUCGGCCGCCACUCGCGGAGAGCAUAGCUCAAACAUGAGGAUCACCCAUGUAUCAUGGAGGACCGGGACCAUAACGU [Rxmullin variation #StaticStem],30 nM,–,46.1 nM,42.7 nM,–
UCGUUUUAGUCGGCCGCCACUGUAUGCAUGUUUAACAUGAGGAUCACCCAUGUCCCGUACUAUAACAGGACCGGGACGUAAUAGA [JR_SSTryptoB_Sub006],112 nM,–,207 nM,936 nM,–
UCUAGGCUCGGAAACGAGCCUAGUACAGAAGGAGCGUGGAUUAACACAGGUAGGUCGCUGACAUGAGGAUCACCCAUGUAUUAUU [SSAA #3],32.5 nM,24.3 nM,38 nM,31 nM,27.7 nM
